Experiments:
[1] = molecular target: type II human collagen (human); experiment: SPR
[2] = molecular target: coch_vWFA2_F527C protein, monomeric form (recombinant vWFA2 domain of human cochlin carrying the p.F527C mutation) (human); experiment: non-reducing SDS-PAGE
type II collagen = type II collagen (UniProt P02458); experiment: SPR; settings: cited from earlier work
Chain of type II collagen (P02458 182-1241): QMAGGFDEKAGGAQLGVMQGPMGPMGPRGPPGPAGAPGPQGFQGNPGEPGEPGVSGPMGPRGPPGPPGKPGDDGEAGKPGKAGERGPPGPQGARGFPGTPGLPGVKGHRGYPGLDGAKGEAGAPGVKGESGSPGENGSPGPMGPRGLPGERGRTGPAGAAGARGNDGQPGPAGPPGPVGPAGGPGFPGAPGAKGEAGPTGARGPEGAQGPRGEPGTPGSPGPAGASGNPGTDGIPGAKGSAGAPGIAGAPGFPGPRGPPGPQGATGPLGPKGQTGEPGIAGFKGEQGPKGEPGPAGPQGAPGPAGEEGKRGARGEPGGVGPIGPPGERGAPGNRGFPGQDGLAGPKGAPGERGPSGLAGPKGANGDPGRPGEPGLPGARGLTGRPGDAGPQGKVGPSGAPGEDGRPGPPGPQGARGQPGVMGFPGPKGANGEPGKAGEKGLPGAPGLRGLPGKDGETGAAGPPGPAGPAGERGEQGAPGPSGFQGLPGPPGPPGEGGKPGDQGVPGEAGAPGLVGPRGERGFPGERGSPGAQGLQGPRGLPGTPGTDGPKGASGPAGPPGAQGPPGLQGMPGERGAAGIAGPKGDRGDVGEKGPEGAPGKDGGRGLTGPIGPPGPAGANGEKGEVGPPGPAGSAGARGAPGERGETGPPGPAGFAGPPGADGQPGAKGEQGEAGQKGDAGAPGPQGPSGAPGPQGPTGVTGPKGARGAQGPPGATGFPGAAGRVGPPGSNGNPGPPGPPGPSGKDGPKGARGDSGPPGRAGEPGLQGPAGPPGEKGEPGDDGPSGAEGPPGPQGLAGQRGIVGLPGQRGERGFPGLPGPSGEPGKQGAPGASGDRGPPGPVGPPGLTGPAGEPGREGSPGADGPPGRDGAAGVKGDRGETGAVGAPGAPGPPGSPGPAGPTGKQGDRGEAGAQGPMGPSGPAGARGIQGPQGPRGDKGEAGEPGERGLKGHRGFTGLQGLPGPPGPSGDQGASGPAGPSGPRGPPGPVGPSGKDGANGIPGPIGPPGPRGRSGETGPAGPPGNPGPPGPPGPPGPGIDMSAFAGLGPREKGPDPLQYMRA

For “coch_vWFA2_F527C protein, dimeric form (covalent disulfide-bonded dimer) (domain or fragment)”, which Kd of the higher-affinity species (heterogeneous analyte, two species 1:1) [1] is on record?
The Kd of the higher-affinity species (heterogeneous analyte, two species 1:1) was 950 nM.

For “coch_vWFA2_F527C protein, monomeric form (recombinant vWFA2 domain of human cochlin carrying the p.F527C mutation) (domain or fragment)”, which stoichiometry N [2] is on record?
Its stoichiometry N is 2.

Which Kd (type II collagen) does the source give for cochlin vWFA2 (from UniProt O43405) here?
The Kd was 94.5 nM.
